Assays:
[1] = target: Fibrinogen-D fragment (human, plasmin digest) (human) (UniProt P02671); experiment: ITC (VP-ITC), peptide titrated into 10 µM Fg-D, one-site model, 27°C
[2] = target: human fibrinogen (human) (UniProt P02671); experiment: apparent affinity, ELISA, GST-tagged Coa fragment on immobilized Fg
[3] = target: human fibrinogen (human) (UniProt P02671); experiment: apparent KD, solid phase binding assay, DC2-Fg coated 1 µg/well, Fg titrated 0-0.3 µM
[4] = target: human fibrinogen (human) (UniProt P02671); experiment: ELISA, GST-tagged Coa fragment on immobilized Fg
[5] = target: human fibrinogen (human) (UniProt P02671); experiment: apparent KD, solid phase binding assay, Efb coated 1 µg/well, Fg titrated 0-0.3 µM
[6] = target: T1, Fibrinogen-D fragment (human, plasmin digest) (human, UniProt P02671 124-225; P02675 164-491; P02679 89-437); experiment: ITC (VP-ITC), peptide titrated into 10 µM Fg-D, one-site model, 27°C
T1 construct: domain: D fragment; Made by digesting human Fg with plasmin for 4 h and gel filtration; also called Fg-D; Fg-D fragment
T1 sequence 1: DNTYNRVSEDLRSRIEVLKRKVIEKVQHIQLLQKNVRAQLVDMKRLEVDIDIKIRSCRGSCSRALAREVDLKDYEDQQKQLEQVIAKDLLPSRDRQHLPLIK
T1 sequence 2: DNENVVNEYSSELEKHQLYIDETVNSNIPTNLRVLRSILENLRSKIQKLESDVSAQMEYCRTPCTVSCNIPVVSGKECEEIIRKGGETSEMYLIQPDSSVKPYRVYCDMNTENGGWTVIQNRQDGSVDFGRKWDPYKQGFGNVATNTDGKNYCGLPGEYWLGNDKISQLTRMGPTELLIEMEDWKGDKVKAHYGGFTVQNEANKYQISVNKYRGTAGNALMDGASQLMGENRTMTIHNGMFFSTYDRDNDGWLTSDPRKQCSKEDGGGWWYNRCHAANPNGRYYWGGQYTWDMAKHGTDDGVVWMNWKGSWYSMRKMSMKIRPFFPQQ
T1 sequence 3: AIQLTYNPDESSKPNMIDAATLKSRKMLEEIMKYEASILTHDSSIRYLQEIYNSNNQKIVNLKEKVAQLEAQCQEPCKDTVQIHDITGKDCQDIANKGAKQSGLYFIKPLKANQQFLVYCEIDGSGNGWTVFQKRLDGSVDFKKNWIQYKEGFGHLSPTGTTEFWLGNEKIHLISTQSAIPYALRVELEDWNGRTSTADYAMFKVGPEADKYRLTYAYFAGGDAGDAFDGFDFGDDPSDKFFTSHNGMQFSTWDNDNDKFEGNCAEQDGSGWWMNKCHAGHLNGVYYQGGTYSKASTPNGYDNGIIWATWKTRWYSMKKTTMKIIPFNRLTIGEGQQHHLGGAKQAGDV

[7] = target: T2, rEfb-O (Efb 68-98), GST-tagged recombinant protein (Staphylococcus aureus strain Newman); experiment: apparent Kd from half maximum binding in ELISA
T2 construct: also called Efb-O68-98; not shown: N-terminal GST tag from pGEX-5x-1
T2 chain: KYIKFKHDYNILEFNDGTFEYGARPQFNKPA

[8] = target: Efb-A30-67, GST-tagged recombinant protein (Staphylococcus aureus strain Newman, UniProt P08515 1-218 = GST; A6QG59 30-67); experiment: apparent Kd from half maximum binding in ELISA
[9] = target: T3, Efb-N30-105, His-tagged recombinant protein (Staphylococcus aureus strain Newman, UniProt A6QG59 30-105); experiment: apparent Kd from half maximum binding in ELISA
T3 construct: range 30-105; not shown: polyhistidine tag (detected with anti-HIS-tag antibody)
T3 sequence (looked up): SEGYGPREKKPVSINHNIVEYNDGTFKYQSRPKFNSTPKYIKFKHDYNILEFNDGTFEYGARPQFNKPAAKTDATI

For sCoa-RI3, synthetic peptide Coa 502-528, which Kd [1] is on record?
Its Kd is 124 nM.

For “Coa-R (Coa 506-636), GST-tagged (from UniProt P08515 1-218)”, which Kd [2] is on record?
Its Kd is 0.8 nM.

For “DC2-Fg, DC2 with the fibrinogen binding motif Efb-O inserted after Gln 301 (designed binder)”, which Kd [3] is on record?
The Kd was 10 nM.

With “Coa-C (Coa 311-636), GST-tagged (from UniProt P08515 1-218)” as the molecule, how does the EC50 [4] read?
Its EC50 is 7.5 nM.

For sCoa-RV1, synthetic peptide Coa 610-636, which Kd [1] is on record?
Its Kd is 139 nM.

With “Efb as coated in the solid phase binding assay of the DC proteins (from UniProt A6QG59 30-165)” as the molecule, how does the Kd [5] read?
The Kd was 1 nM.

How did the Kd [6] turn out when ETNAYNVTTHANGQVSYGARPTYKKPS (also called peptide CoaRI) [sCoa-RI, synthetic peptide Coa 506-532] was run?
The Kd was 88 nM.

B1: FBE5-F11 (Fc fusion)
VH: QVQLQESGGGVVQPGRSLRLSCAASGFTFSSYGMHWVRQAPGKGLEWVAVISYDGSNKYYADSVKGRFTISRDNSKNTLYLQMNSLRAEDTAVYYCAKDLASSGFDYWGQGTLVTVSS
VL: QSVLTQPPSVSAAPGQKVTISCSGSSSNIGNNYVSWYQQLPGTAPKLLIYDNNKRPSGIPDRFSGSKSGTSATLGITGLQTGDEADYYCGTWDSSLSAEVFGGGTKLTVL
notes: Tested as scFv-Fc (human scFv from HAL9/HAL10 recloned into pCSE2.6-hIgG1-Fc-XP, made in HEK293-6E)
With B1 as the molecule, how does the Kd [7] read?
Its Kd is about 0.1 nM.

And the Kd [8]?
The Kd was about 0.1 nM.

What about the Kd [9] of the same molecule?
The Kd was about 0.1 nM.
